Results taken from the Human Domainome abundance scans (Beltran et al. 2025).
± gives the uncertainty stated by the source.

B1: Metastasis-associated protein MTA3, residues 265 to 317; numbered along this chain, Q9BTC8 (parent)
chain: RDEMEEWSASEASLFEEALEKYGKDFNDIRQDFLPWKSLTSIIEYYYMWKTTD

Variants of: B1
Test: abundance fitness (aPCA) (normalised: wild type 0, dead -1); higher = more abundant; growth selection in yeast, the domain comes from the species named
Conditions: Homo sapiens

Row | Variant | abundance fitness
1 | T40D | 0.195 ± 0.1
2 | T40H | -0.138 ± 0.097
3 | T40M | -0.435 ± 0.084
4 | T40N | 0.129 ± 0.086
5 | T40A | -0.322 ± 0.092
6 | K50C | -0.279 ± 0.13
7 | K50D | -0.593 ± 0.27
8 | K50N | 0.024 ± 0.13
9 | K50A | -0.42 ± 0.083
10 | K50R | -0.288 ± 0.072
11 | E3G | -0.475 ± 0.15
12 | E3R | -0.147 ± 0.11
13 | E3T | 0.741 ± 0.15
14 | E3S | 0.173 ± 0.09
15 | E3A | -0.342 ± 0.14
16 | Y46G | -0.422 ± 0.16
17 | Y46K | -0.791 ± 0.43
18 | A12D | -0.875 ± 0.19
19 | A12W | -0.816 ± 0.21
20 | S8W | -0.303 ± 0.16
21 | S41I | -1.09 ± 0.36

Row | Variant | abundance fitness
22 | S41M | -0.794 ± 0.21
23 | S41Q | -0.226 ± 0.13
24 | S41C | -0.681 ± 0.2
25 | S41W | -0.901 ± 0.16
26 | N27D | 0.074 ± 0.15
27 | Y45S | -0.561 ± 0.35
28 | Y45G | -0.98 ± 0.33
29 | Y45M | -0.872 ± 0.18
30 | Y45T | -0.41 ± 0.42
31 | F15V | -0.316 ± 0.11
32 | F15P | -0.918 ± 0.22
33 | F15Y | -1.15 ± 0.32
34 | F15G | -0.788 ± 0.14
35 | E44C | -0.808 ± 0.43
36 | E44W | -1.05 ± 0.5
37 | A9V | -0.359 ± 0.086
38 | A9I | -0.335 ± 0.2
39 | A9W | -0.527 ± 0.14
40 | A9K | -0.505 ± 0.097
41 | A9P | -0.29 ± 0.085
42 | A9F | -0.726 ± 0.26

Row | Variant | abundance fitness
43 | A9L | -0.5 ± 0.11
44 | E16R | -0.427 ± 0.09
45 | E16K | -0.359 ± 0.2
46 | E16S | -0.324 ± 0.095
47 | E16M | -0.608 ± 0.1
48 | E16C | -0.725 ± 0.24
49 | E16T | -0.686 ± 0.11
50 | E16A | -0.119 ± 0.11
51 | L14A | -0.396 ± 0.087
52 | L14P | -0.872 ± 0.2
53 | L14K | -0.168 ± 0.17
54 | M4R | -0.039 ± 0.15
55 | I43S | -0.297 ± 0.093
56 | I43N | -0.7 ± 0.26
57 | I43Q | 0.136 ± 0.077
58 | I43R | 0.162 ± 0.065
59 | I43K | 0.268 ± 0.1
60 | D53G | 0.066 ± 0.16
61 | D53V | -0.336 ± 0.092
62 | S13D | -0.326 ± 0.22
63 | S13Y | -0.631 ± 0.14

Row | Variant | abundance fitness
64 | S13G | -0.015 ± 0.082
65 | E20L | -0.126 ± 0.073
66 | E20V | -0.213 ± 0.13
67 | E20W | -0.613 ± 0.17
68 | E20N | -0.303 ± 0.15
69 | E20S | -0.366 ± 0.075
70 | E20Y | -0.506 ± 0.13
71 | E20C | -0.682 ± 0.2
72 | G23Q | -0.759 ± 0.11
73 | G23T | -0.92 ± 0.22
74 | G23I | -1.01 ± 0.24
75 | Y47S | 0.325 ± 0.14
76 | T52M | -0.402 ± 0.13
77 | T52V | -0.097 ± 0.12
78 | T52Y | -0.428 ± 0.12
79 | W49L | 0.112 ± 0.061
80 | W49V | -0.204 ± 0.083
81 | W49C | 0.061 ± 0.11
82 | W49Q | 0.349 ± 0.11
83 | W49I | -0.04 ± 0.18
